{"source": "paper PMC10674394", "about": "(Pharmaceuticals, 2023)", "biological_target": "C-192 ( | human, UniProt P0CG48 1-76; P0CG48 1-76, L73P (from the printed letters 55-TLSDYNIQKESTLHLVLRPR-74), Lys63 of the acceptor ubiquitin in an isopeptide bond with the C-terminal glycine of the donor ubiquitin (Lys63-linked diubiquitin) | C-terminal glycine of the donor ubiquitin in an isopeptide bond …)", "experiment": "SPR; Biacore T200; C-192 immobilised on a CM5 chip by amine coupling (5 ug/mL in 10 mM sodium acetate pH 5.5, 400 RU); GLP-1R, GCGR (3.906-1000 nM) or KLB (0.195-200 nM) injected at 50 uL/min for 4 min, dissociation 10 min; 1:1 kinetic binding model", "conditions": "both partners purified", "data": [{"binder": "GCGR (receptor) AQVMDFLFEKWKLYGDQCHHNLSLLPPPTELVCNRTFDKYSCWPDTPANTTANISCPWYLPWHHKVQHRFVFKRCGPDGQWVRGPRGQPWRDASQCQMDGEEIEVQKEVAK", "values": [{"measurement": "Kd", "result": 19.4, "unit": "nM"}, {"measurement": "kon", "result": 26300, "unit": "M⁻¹ s⁻¹"}]}]}
